Assay results published in patent publication US9101618B2, “Method for treating and/or preventing neurodegenerative disease by adiponectin receptor agonist” (TOKYO METROPOLITAN INSTITUTE OF MEDICAL SCIENCE, priority 2011, dated 2015).

Molecular target: T1, human α (alpha)-synuclein recombinant protein (Homo sapiens, UniProt P37840)
T1 construct: made in house
Experiment: Protein-protein interaction of α-synuclein and adiponectin in test tube (western blotting)
Type: binding
Settings: 48 hours, 37° C.
Method: Human adiponectin recombinant protein (ProSpec, IWAI CHEMICALS COMPANY LTD.) 0.5 μg and human α (alpha)-synuclein recombinant protein (Hashimoto et al., Brain Res. 799:301 (1998)) 1.0 μg were incubated for 48 hours in 100 mM sodium acetate solution at 37° C., 500 rpm (Thermomixer, Eppendorf Co., Ltd.). Later, an analysis via western blotting was performed in accordance with procedures similar to those in example 1 through example 6. Each sample was dissolved in 1× sample buffer without 2ME, and heated at 95° C. for 10 min. With regard to a control experiment, incubation was performed at room temperature. Particularly, instead of α (alpha)-synuclein, BSA (1.0 μg) was incubated with adiponectin.

- dimer of adiponectin (0.5 μg adiponectin incubated with 1.0 μg α-synuclein): further increased
- adiponectin aggregation (in the presence of α-synuclein, densitometer values of aggregate range): significantly promoted
B1: adiponectin: recombinant human adiponectin (trimer, PROSPEC) added to serum-free medium at 1 μg/mL (protein, UniProt Q15848 19-244, looked up)
Adiponectin: ETTTQGPGVLLPLPKGACTGWMAGIPGHPGHNGAPGRDGRDGTPGEKGEKGDPGLIGPKGDIGETGVPGAEGPRGFPGIQGRKGEPGEGAYVYRSAFSVGLETYVTIPNMPIRFTKIFYNQQNHYDGSTGKFHCNIPGLYYFAYHITVYMKDVKVSLFKKDKAMLFTYDQYQENNVDQASGSVLLHLEVGDQVWLQVYGEGERNGLYADNDNDSTFTGFLLYHDTN
